Results: patent publication US10918730B2, “Pegylated bioactive peptides and uses thereof” (GRIFFON PHARMACEUTICALS INC., priority 2016, dated 2021)
Blank lines part the entries; values can stand above or below the compound they belong to. Non-standard residues stand in square brackets, D forms with d. No end group written: not given here. hArg = N=C(N)NCCCC[C@H](N)C(=O)O; Orn = NCCC[C@H](N)C(=O)O

Experiments:
[1] = target: T1, human GHRH receptor (Homo sapiens, UniProt Q02643); assay: Hit Hunter (DiscoveRx) cAMP agonist assay in cells expressing GHRH receptor; format: cell-based; conditions: for potency in words: Table 2 experiment, compared to native peptide; for in vitro biological activity in words: longer PEG chains at the 9th position
T1 sequence (Q02643 23-423): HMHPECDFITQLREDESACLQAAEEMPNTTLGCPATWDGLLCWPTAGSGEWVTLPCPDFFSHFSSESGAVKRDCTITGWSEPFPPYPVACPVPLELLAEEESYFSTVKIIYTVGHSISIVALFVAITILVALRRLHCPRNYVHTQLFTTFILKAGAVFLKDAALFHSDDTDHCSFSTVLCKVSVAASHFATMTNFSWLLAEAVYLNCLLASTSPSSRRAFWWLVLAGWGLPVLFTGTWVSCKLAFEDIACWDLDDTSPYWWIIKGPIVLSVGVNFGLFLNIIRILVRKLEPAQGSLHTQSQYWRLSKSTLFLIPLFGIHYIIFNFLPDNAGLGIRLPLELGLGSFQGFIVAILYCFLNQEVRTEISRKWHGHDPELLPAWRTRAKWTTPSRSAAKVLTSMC
Protocol: For agonist determination, cells were incubated with sample to induce response. Media was aspirated from cells and replaced with 15 μL 2:1 HBSS/10 mM Hepes:cAMP XS+ Ab reagent. […] Vehicle concentration was 1%. […] Microplates were read following signal generation with a PerkinElmer Envision™ instrument for chemiluminescent signal detection. Compound activity was analyzed using CBIS data analysis suite (ChemInnovation, CA).

[2] = system: Growth Hormone secretion; assay: GH release kinetics after subcutaneous injection in Sprague-Dawley rats; format: in vivo; conditions: female rats, single subcutaneous dose 0.04 mg/kg, FIG. 1; for GH AUC (0-90 min): plasma GH by ELISA
Excerpt: Protocol: Sprague-Dawley rats (female, weighing from 250 to 300 g) were obtained from Charles River Inc. Animals were used according to a protocol of the Animal Care Committee along with the principles of the Guide for the Care and Use of Experimental Animals of the Canadian Council on Animal Care. The animals were maintained on standard laboratory chow under a 12:12 light:dark cycle. They were kept in groups of 4 rats per cage. The animals were anesthetized with isoflurane 2.5%. A mid-section opening was made in the neck to expose the carotid artery. The carotid artery was canulated with polypropylene tubing (PE-50) to allow blood withdrawal. After surgical preparation, rats received a subcutaneous injection of GHRH analog (10-100 μg/kg) dissolved in 20 mM AcONa+5% mannitol at pH 5). Blood samples (400 μL/time point) were collected from 2-4 animals per group. […] Blood was collected into microtainer tubes containing K3EDTA, mixed and immediately centrifuged at 13,000 RPM in a desktop centrifuge for 2 minutes. The plasma was collected and placed into a screw cap Eppendorf™ tube and quickly frozen in liquid nitrogen. The samples were then kept at −80° C. until assayed. Determination of GH levels was performed as described below.
Determination of GH levels in plasma samples: Rat and mouse plasma samples were vortexed carefully and centrifuged at 9,000 RPM for 2 min at 4° C. […] The remainder of the procedure was performed according to the manufacturers instructions, and the data obtained were analyzed using GraphPad Prism™ software. […] Growth hormone levels were determined in timed-aliquots of blood and are depicted in FIG. 1. […]
The N-terminal part of the GHRH peptide is known to be buried in the extracellular loops and transmembrane domains of the GHRH receptor, and thus almost all of the amino acids in the N-terminal domain participate in high affinity binding of the GHRH peptide to the receptor. […] Briefly, peptides (0.04 mg/kg) were subcutaneously injected in female rats and growth hormone levels were determined in timed aliquots of blood drawn from the animals.

Compound: YaDAIFTASYROVLAQLSAROALQDILC(Peg-2K)KN-NH2 (Y[dA]DAIFTASYR[Orn]VLAQLSAR[Orn]ALQDILC(PEG 2 kDa)KN-NH2) [Analog 1 (C28), GHRH analog with Cys28 conjugated to about 2 kDa PEG]
stimulation of GH secretion in words [2]: potently stimulated GH secretion

Compound: CC[C@H](C)[C@H](NC(=O)[C@H](C)NC(=O)[C@H](CC(=O)O)NC(=O)[C@H](C)NC(=O)[C@@H](N)Cc1ccc(O)cc1)C(=O)N[C@@H](Cc1ccccc1)C(=O)N[C@H](C(=O)N[C@@H](CC(N)=O)C(=O)N[C@@H](CO)C(=O)N[C@@H](Cc1ccc(O)cc1)C(=O)N[C@@H](CCCNC(=N)N)C(=O)N[C@@H](CCCCN)C(=O)N[C@H](C(=O)N[C@@H](CC(C)C)C(=O)NCC(=O)N[C@@H](CCC(N)=O)C(=O)N[C@@H](CC(C)C)C(=O)N[C@@H](CO)C(=O)N[C@@H](C)C(=O)N[C@@H](CCCNC(=N)N)C(=O)N[C@@H](CCCCN)C(=O)N[C@@H](CC(C)C)C(=O)N[C@@H](CC(C)C)C(=O)N[C@@H](CCC(N)=O)C(=O)N[C@@H](CC(=O)O)C(=O)N[C@H](C(=O)N[C@@H](CCSC)C(=O)N[C@@H](CO)C(=O)N[C@@H](CCCNC(=N)N)C(N)=O)[C@@H](C)CC)C(C)C)[C@@H](C)O [GHRH1-29, reference compound]
Max. response(%) (compared to baseline) ([1]; Table 3, independent experiment): 112.97%

Compound: YaDAIFTAC(Peg-40K)YROVLAQLSAROALQDILS(Har)-NH2 (Y[dA]DAIFTAC(PEG 40 kDa)YR[Orn]VLAQLSAR[Orn]ALQDILS[hArg]-NH2) [Analog 16 (C9), Cys9 conjugated to about 40 kDa PEG, Har29]
in vitro biological activity in words ([1]; Table 3 experiment): without loss of in vitro biological activity

Compound: YaDAIFTAC(Peg-2K)YROVLAQLSAROALQDILSKN-NH2 (Y[dA]DAIFTAC(PEG 2 kDa)YR[Orn]VLAQLSAR[Orn]ALQDILSKN-NH2) [Analog 6 (C9), Cys9 conjugated to about 2 kDa PEG]
GH AUC (0-90 min) [2]: 29075 ng/ml/90 min

Compound: YaDAIFTAC(Peg-5K)YROVLAQLSAROALQDILS(Har)-NH2 (Y[dA]DAIFTACYR[Orn]VLAQLSAR[Orn]ALQDILS[hArg]-NH2; not fully specified (residue 9); printed as YaDAIFTAC(Peg-5K)YROVLAQLSAROALQDILS(Har)-NH2) [Analog 15 (C9), Cys9 conjugated to 5K PEG, Har29]
in vitro biological activity in words ([1]; Table 3 experiment): without loss of in vitro biological activity

Second part, led by results:

potency in words [1]: reduced potency
Compound: YaDAIFTASYROVLAQLSC(Peg-2K)ROALQDILSKN-NH2 (Y[dA]DAIFTASYR[Orn]VLAQLSC(PEG 2 kDa)R[Orn]ALQDILSKN-NH2) [Analog 4 (C19), Cys19 conjugated to about 2 kDa PEG]

potency in words [1]: reduced potency
Compound: YaDAIFTC(Peg-2K)SYROVLAQLSAROALQDILSKN-NH2 (Y[dA]DAIFTC(PEG 2 kDa)SYR[Orn]VLAQLSAR[Orn]ALQDILSKN-NH2) [Analog 7 (C8), Cys8 conjugated to about 2 kDa PEG]
GH AUC (0-90 min) [2]: 15657 ng/ml/90 min

potency in words [1]: reduced potency
Compound: YaDAIFTASYROVLAC(Peg-2K)LSAROALQDILSKN-NH2 (Y[dA]DAIFTASYR[Orn]VLAC(PEG 2 kDa)LSAR[Orn]ALQDILSKN-NH2) [Analog 9 (C16), Cys16 conjugated to about 2 kDa PEG]

potency in words [1]: reduced potency
Compound: YaDAIFTASYROVLC(Peg-2K)QLSAROALQDILSKN-NH2 (Y[dA]DAIFTASYR[Orn]VLC(PEG 2 kDa)QLSAR[Orn]ALQDILSKN-NH2) [Analog 5 (C15), Cys15 conjugated to about 2 kDa PEG]

fold more potent than the 5K and 40K Pegylated GHRH peptides (analogs 15 and 16) ([1]; Table 3 experiment): 2-6 fold | fold more potent than the native peptide ([1]; Table 3 experiment): ~14 fold
Compound: YaDAIFTAC(Peg-2K)YROVLAQLSAROALQDILS(Har)-NH2 (Y[dA]DAIFTAC(PEG 2 kDa)YR[Orn]VLAQLSAR[Orn]ALQDILS[hArg]-NH2) [Analog 10 (C9), Cys9 conjugated to about 2 kDa PEG, Har29]

potency in words [1]: reduced potency
Compound: YaDAIFTASYROVLAQLSAROALQDC(Peg-2K)LSKN-NH2 (Y[dA]DAIFTASYR[Orn]VLAQLSAR[Orn]ALQDC(PEG 2 kDa)LSKN-NH2) [Analog 8 (C26), Cys26 conjugated to about 2 kDa PEG]
